# T1: SXM (GST-SXL Drosophila) (Drosophila melanogaster, UniProt P19339 1-354)
# T1 sequence: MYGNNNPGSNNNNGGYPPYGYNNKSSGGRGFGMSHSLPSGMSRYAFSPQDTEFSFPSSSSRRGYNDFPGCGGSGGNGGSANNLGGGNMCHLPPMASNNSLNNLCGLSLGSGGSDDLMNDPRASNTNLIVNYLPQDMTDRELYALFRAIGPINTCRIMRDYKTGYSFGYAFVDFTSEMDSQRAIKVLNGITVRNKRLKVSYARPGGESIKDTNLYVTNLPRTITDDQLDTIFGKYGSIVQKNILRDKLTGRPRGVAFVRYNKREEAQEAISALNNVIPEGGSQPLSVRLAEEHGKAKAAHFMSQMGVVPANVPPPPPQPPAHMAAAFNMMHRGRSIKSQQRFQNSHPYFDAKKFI
# T2: SXS (GST-SXL Sciara) (Sciara ocellaris, UniProt Q86QM9 1-287)
# T2 sequence: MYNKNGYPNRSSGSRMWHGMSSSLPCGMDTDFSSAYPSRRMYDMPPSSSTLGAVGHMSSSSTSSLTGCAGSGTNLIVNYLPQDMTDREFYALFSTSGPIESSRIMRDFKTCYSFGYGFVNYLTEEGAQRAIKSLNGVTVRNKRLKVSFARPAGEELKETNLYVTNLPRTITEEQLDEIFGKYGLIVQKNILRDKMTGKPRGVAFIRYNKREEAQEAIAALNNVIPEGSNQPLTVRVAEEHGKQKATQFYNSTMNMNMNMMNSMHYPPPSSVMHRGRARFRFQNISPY
# Columns and labels:
# Details in all cases: protein: recombinant; tags: GST; label: fluorescein (RNA labelling mix)
# SXM (GST-SXL Drosophila) [1] = target: T1, SXM (GST-SXL Drosophila); assay: EMSA; cooperative, Hill n>2; error 95% CI; 20 mM Hepes pH 8.0, 0.1 M KCl, 0.5 mM EDTA, 1 mM DTT, 0.05% NP40, 20% glycerol, 3 µg yeast tRNA; 5 min on ice, then 10 min at room temperature with RNA; 5% native PAGE, 0.25x TBE
# SXS (GST-SXL Sciara) = target: T2, SXS (GST-SXL Sciara); assay: EMSA; Hill n=1; error 95% CI; 20 mM Hepes pH 8.0, 0.1 M KCl, 0.5 mM EDTA, 1 mM DTT, 0.05% NP40, 20% glycerol, 3 µg yeast tRNA; 5 min on ice, then 10 min at room temperature with RNA; 5% native PAGE, 0.25x TBE
# SXM (GST-SXL Drosophila) [2] = target: T1, SXM (GST-SXL Drosophila); assay: EMSA; apparent Kd, Hill fit; error 95% CI; 20 mM Hepes pH 8.0, 0.1 M KCl, 0.5 mM EDTA, 1 mM DTT, 0.05% NP40, 20% glycerol, 3 µg yeast tRNA; 5 min on ice, then 10 min at room temperature with RNA; 5% native PAGE, 0.25x TBE
Binder,Kd (SXM (GST-SXL Drosophila) [1]) [nM],Kd (SXS (GST-SXL Sciara)) [nM],Kd (SXM (GST-SXL Drosophila) [2]) [nM]
CAUGAUUAUUUUUUUUUAUUUUUUUUCGGUGA (ssRNA) [double poly(U) SXL site],500 ± 300,300 ± 200,
ACAUAUUUUUUUUCACAGC (ssRNA) [single poly(U) SXL site],,,150000 ± 20000

# — PMC3677924, “Biochemical and Functional Analysis of Drosophila-Sciara Chimeric Sex-Lethal Proteins”
